# How the values were obtained:
# [1] = target: T1, NaPi2b expressed on IGROV-1 cells (Homo sapiens, UniProt O95436); test: Cellular binding of antibody and ADCs to IGROV-1 cells by flow cytometry (Example 14)
# T1 construct: IGROV-1 cells express endogenous NaPi2b at a high level; endogenous in cells; host or cells: IGROV-1
# T1 sequence (O95436 1-690): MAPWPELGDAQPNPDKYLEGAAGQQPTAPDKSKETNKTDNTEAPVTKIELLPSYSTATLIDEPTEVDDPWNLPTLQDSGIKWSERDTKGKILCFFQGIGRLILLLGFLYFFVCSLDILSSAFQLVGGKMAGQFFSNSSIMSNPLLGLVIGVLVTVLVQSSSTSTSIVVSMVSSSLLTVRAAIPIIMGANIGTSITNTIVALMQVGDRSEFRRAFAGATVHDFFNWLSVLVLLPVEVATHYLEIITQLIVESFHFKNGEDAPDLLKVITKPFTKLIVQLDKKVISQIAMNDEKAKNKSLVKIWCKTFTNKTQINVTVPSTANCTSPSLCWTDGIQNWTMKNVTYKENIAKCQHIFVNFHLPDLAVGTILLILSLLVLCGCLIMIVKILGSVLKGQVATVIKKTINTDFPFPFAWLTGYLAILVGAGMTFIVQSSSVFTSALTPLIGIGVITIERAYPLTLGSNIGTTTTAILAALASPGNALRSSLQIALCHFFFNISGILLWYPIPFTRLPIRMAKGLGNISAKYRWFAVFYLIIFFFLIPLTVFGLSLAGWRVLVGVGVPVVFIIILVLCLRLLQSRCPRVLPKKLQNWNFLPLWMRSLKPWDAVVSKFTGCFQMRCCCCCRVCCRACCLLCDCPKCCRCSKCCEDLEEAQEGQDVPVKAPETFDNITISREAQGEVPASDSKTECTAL
# Procedure: (§1) Briefly, HEK293-6e cells were transfected for ˜24 hours to transiently express human NaPi2b, cynomolgus or mouse NaPi2b, at 1 μg of DNA per 1 million cells. Following transfection, 50,000 cells per well were seeded in V-bottom 96-well plates and incubated with 200 nM of primary antibody for 18-24 hours at 4° C. to prevent internalization. Post-incubation, cells were washed and stained with anti-Human IgG Fc AF647 conjugate (Jackson Immuno Research Labs, West Grove, PA, Cat. No. 109-605-098, Lot. No. 124868) at 4° C. for 1 hour. Following staining and washing, fluorescence was detected by flow cytometry on BD LSRFortessa™ Cell Analyzer (BD Biosciences, Franklin Lake, NJ) with 10,000 minimum events collected per well. The AF647/APC-A GeoMean (fluorescence signal geometric mean, proportional to anti-Human AF647 binding) was calculated for the live singlet cell population for each primary antibody using FlowJo™ v8 software (BD Biosciences, Franklin Lake, NJ). The Bmax and Kd of each primary antibody were calculated using GraphPad Prism Version 9 (GraphPad Software, San Diego, CA)
# The ability of ADCs to bind to cells expressing NaPi2b was assessed. […] Binding to endogenous high NaPi2b-expressing cell lines IGROV-1 and HCC-78 was assessed by flow cytometry according to methods described in Example 5.
# cynomolgus NaPi2b = test: Flow cytometry binding to HEK293-6e cells transfected with cynomolgus NaPi2b (Example 5); settings: transfected HEK293-6e cells
# cynomolgus NaPi2b, sequence (as listed by the source): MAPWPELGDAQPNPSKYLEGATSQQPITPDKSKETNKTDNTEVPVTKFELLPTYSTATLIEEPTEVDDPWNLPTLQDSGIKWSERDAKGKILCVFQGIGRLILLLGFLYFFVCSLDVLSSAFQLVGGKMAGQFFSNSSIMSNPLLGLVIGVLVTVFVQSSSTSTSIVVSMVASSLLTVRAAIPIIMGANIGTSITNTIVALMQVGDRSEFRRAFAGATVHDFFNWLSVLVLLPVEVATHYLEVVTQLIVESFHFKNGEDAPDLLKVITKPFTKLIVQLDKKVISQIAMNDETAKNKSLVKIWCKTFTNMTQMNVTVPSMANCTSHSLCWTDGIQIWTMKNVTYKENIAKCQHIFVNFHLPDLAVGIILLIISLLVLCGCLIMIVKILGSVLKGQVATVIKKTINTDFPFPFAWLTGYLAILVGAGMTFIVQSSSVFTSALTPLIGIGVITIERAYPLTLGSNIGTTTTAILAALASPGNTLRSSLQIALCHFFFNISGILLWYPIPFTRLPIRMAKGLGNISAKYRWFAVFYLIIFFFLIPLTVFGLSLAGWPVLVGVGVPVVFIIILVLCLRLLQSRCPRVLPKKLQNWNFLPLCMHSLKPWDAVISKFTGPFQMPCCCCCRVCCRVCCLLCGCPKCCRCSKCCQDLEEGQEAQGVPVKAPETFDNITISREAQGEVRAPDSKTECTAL
# Procedure: The binding cross-reactivity of humanized antibody variant v29456 to human, cynomolgus and mouse NaPi2b was assessed by flow cytometry using HEK293-6e transfected cells.
# as §1
# [2] = target: T1, NaPi2b expressed on IGROV-1 cells; test: Cellular binding to IGROV-1 cells by flow cytometry (Example 19); settings: NB = no binding (apparent Kd >150 nM)
# Procedure: Briefly, cells were seeded at 50,000 cells/well in conical-bottom 96-well plates and treated with test antibody for 24 hours at 4° C. to prevent internalization. Palivizumab (anti-RSV antibody, v22277) was included as a negative control. […] Following incubation, cells were washed and stained with anti-Human IgG Fc AF647 conjugate (Jackson Immuno Research Labs, West Grove, PA; Cat. No. 109-605-098) at 4° C. for 30 min. Following incubation and washing, fluorescence was detected by flow cytometry on a BD LSRFortessa™ Cell Analyzer (BD Biosciences, Franklin Lake, NJ) with 1,000 minimum events collected per well. The AF647/APC-A GeoMean (fluorescence signal geometric mean, proportional to anti-Human AF647 binding) was calculated for the live cell population using FlowJo™ Version 10.8.1 (BD Biosciences, Franklin Lake, NJ) and plotted for each test antibody using GraphPad Prism Version 9 (GraphPad Software, San Diego, CA).
# The ability of the humanized antibody variants v38591 and v29456 to bind to NaPi2b expressed on cells was assessed on endogenous NaPi2b-expressing tumor cell lines IGROV-1 (ovarian adenocarcinoma) and TOV-21G (ovarian carcinoma) by flow cytometry. IGROV-1 and TOV-21G cells express endogenous NaPi2b at high and moderate levels, respectively, as described in Example 10.
# Cellular binding was performed according to methods described in Example 13.
substance,measurement,setting,value
"v22277: anti-RSV antibody palivizumab, negative control; has a heterodimeric Fc [reference compound]","Binding to IGROV-1 cells, in words",[1],did not bind
same,"Binding to cynomolgus NaPi2b, in words",cynomolgus NaPi2b,did not bind
same,Kd,[2],> 150 nM
